In PMC5821389, “Fluorescent single-stranded DNA-binding protein from Plasmodium falciparum as a biosensor for single-stranded DNA”:

How the values were obtained:
[1] = target: PfSSB C93A G102C, IDCC labeled (Plasmodium falciparum, UniProt Q8I415 77-284, C93A;G102C); experiment: fluorescence change; high salt; High salt buffer (composition not in material) or low salt buffer (20 mM NaCl); pH and temperature not in material; conditions: protein: recombinant; tags: DCC at C102; chain copies: 4; single strand
[2] = target: T1, DCC-PfSSB (wild-type PfSSB labeled with IDCC) (Plasmodium falciparum, UniProt Q8I415 77-284); experiment: as above; conditions: protein: recombinant; tags: DCC (diethylaminocoumarin) at C93; chain copies: 4; single strand
[3] = target: PfSSB Y156R, IDCC labeled (Plasmodium falciparum, UniProt Q8I415 77-284, Y156R); experiment: as above; conditions: protein: recombinant; tags: DCC at C93; chain copies: 4; single strand
[4] = target: PfSSB C93A G103C, IDCC labeled (Plasmodium falciparum, UniProt Q8I415 77-284, C93A;G103C); experiment: as above; conditions: protein: recombinant; tags: DCC at C103; chain copies: 4; single strand
[5] = target: PfSSB C93A W166C, 5-IATR labeled (Plasmodium falciparum, UniProt Q8I415 77-284, C93A;W166C); experiment: as above; conditions: protein: recombinant; tags: tetramethylrhodamine (5-IATR) at C166; chain copies: 4; single strand
[6] = target: PfSSB wild type, 5-IATR labeled (Plasmodium falciparum, UniProt Q8I415 77-284); experiment: as above; conditions: protein: recombinant; tags: tetramethylrhodamine (5-IATR) at C93; chain copies: 4; single strand
[7] = target: PfSSB C93A G103C, 6-IATR labeled (Plasmodium falciparum, UniProt Q8I415 77-284, C93A;G103C); experiment: as above; conditions: protein: recombinant; tags: tetramethylrhodamine (6-IATR) at C103; chain copies: 4; single strand
[8] = target: T1, DCC-PfSSB (wild-type PfSSB labeled with …); experiment: stopped-flow kinetics (koff/kon); high salt (salt inferred); High salt buffer (composition not in material) or low salt buffer (20 mM NaCl); pH and temperature not in material; conditions: protein: recombinant; tags: DCC (diethylaminocoumarin) at C93; chain copies: 4; single strand
[9] = target: T2, PfSSB wild type, unlabeled (Plasmodium falciparum, UniProt Q8I415 77-284); experiment: competition; high salt, equimolar labeled and unlabeled PfSSB; High salt buffer (composition not in material) or low salt buffer (20 mM NaCl); pH and temperature not in material; conditions: protein: recombinant; chain copies: 4; single strand
[10] = target: T1, DCC-PfSSB (wild-type PfSSB labeled with …); experiment: fluorescence titration; high salt, 125 pM DCC-PfSSB; single titration; High salt buffer (composition not in material) or low salt buffer (20 mM NaCl); pH and temperature not in material; conditions: protein: recombinant; tags: DCC (diethylaminocoumarin) at C93; chain copies: 4; single strand
[11] = target: T2, PfSSB wild type, unlabeled; experiment: competition; calculated from DCC-PfSSB Kd and 25-fold ratio; high salt; High salt buffer (composition not in material) or low salt buffer (20 mM NaCl); pH and temperature not in material; conditions: protein: recombinant; chain copies: 4; single strand
[12] = target: T1, DCC-PfSSB (wild-type PfSSB labeled with …); experiment: stopped-flow kinetics (koff 0.014 s-1 / kon 199 uM-1s-1); low salt, 20 mM NaCl; koff by wtSSB displacement; High salt buffer (composition not in material) or low salt buffer (20 mM NaCl); pH and temperature not in material; conditions: protein: recombinant; tags: DCC (diethylaminocoumarin) at C93; chain copies: 4; single strand
[13] = target: T1, DCC-PfSSB (wild-type PfSSB labeled with …); experiment: fluorescence titration; high salt, 250 nM protein; two dT35 per tetramer; kon 109 uM-1s-1; High salt buffer (composition not in material) or low salt buffer (20 mM NaCl); pH and temperature not in material; conditions: protein: recombinant; tags: DCC (diethylaminocoumarin) at C93; chain copies: 4; single strand; two copies per tetramer at saturation

B1: dT70 (ssDNA)
DNA: TTTTTTTTTTTTTTTTTTTTTTTTTTTTTTTTTTTTTTTTTTTTTTTTTTTTTTTTTTTTTTTTTTTTTT
- binding signal [1]: 1.8 ± 0.09 fluorescence ratio +/- dT70
- binding signal [2]: 20.1 ± 0.1 fluorescence ratio +/- dT70
- binding signal [3]: 12.3 ± 0.07 fluorescence ratio +/- dT70
- binding signal [4]: 3.5 ± 0.08 fluorescence ratio +/- dT70
- binding signal [5]: 12.8 ± 0.5 fluorescence ratio +/- dT70
- binding signal [6]: 9.1 ± 0.2 fluorescence ratio +/- dT70
- binding signal [7]: 3.5 ± 0.4 fluorescence ratio +/- dT70
- Kd [8]: < 4.6 pM
- binding signal [9]: > 25 fold tighter than DCC-PfSSB
- Kd [10]: 1.2 ± 0.5 pM
- Kd [11]: < 0.2 pM
- Kd [12]: 70 pM

Binder: TTTTTTTTTTTTTTTTTTTTTTTTTTTTTTTTTTT (ssDNA) [dT35]
- binding result [13]: binds
